We go through 16 sequences from the nanobody polyreactivity screen of Harvey et al. (2022).

The nature of this data set: yeast display, Sf9 membrane polyspecificity reagent, FACS + sequencing; frameworks hold sequencing errors. The procedure, abridged:
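Polyreactivity labels are assigned by the sorting gate from which each nanobody was recovered. The gates were low and high (top ~1%), set on anti-HA fluorescence for expression and streptavidin fluorescence for reagent binding. Before sorting, galactose-induced (36–48 hours) yeast display cells were stained for 1 hour at 4 °C with 10% biotinylated, detergent-solubilized Sf9 membrane reagent.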
In the case of “QVQLVESGGGLVQAGGSLRLSSAASGSIFYDYAMGWYRQAPGKERELVAAITNDDSSTYYADSVKGRFTISRDNAKNTVYLQMNSLKPEDTAVYYCRFKYAVAHHFWVYRYDYWGQGTQVTVSS”, the “polyreactivity (PSR sort gate)” value is listed as “low polyreactivity”.
Take “QVQLVETGGGLVQAGGSLRLSCAASGYTFASNDMVWYRQAPGKERELVAAITKGGGRTYYADSVKGRFTISRDNAKNTVYLQMNRLKPEDTAVYFCAARQLIKYDYCGQGTQVTVSS”: the “polyreactivity (PSR sort gate)” value is listed as “low polyreactivity”.
As for “QVQLVESGGGLVQAGGSLRLSCAASGFTFNYYAMGWYRQAPGKERELVAAISGRGGSTYYADSVKGRFTISRDNAKNTVYLQMNSLKPEDTAVYYCAADYWYDYYSTEYDYWGQGTQVTVSS”, the entry is “low polyreactivity”; as for “QVQLVESGGGLVQAGGSLRLSCAASGFTFGGYVMGWYRQAPGKERELVAAINQTGGSTYYADSVKGRFTISRDNAKNTVYLQMNSLKPEDTAVYYCAALGYHGYRNYDYWGQGTQVTVSS”, “low polyreactivity”; as for “QVQHVESGGGLVQAGGSLRLSCAASGSTFSKYAMGWYRLAPGKERELVAAINYGGTSTYYADSVKGRFTISRDNAKNTVYLQMNSLKPEDTAVYYCAVIYRRLYTGGQNPYDYWGQGTQVTVSS”, “high polyreactivity”.
As for “QVQLVESGGGLVQAGGSLRLSCAASGRTFERNAMGWYRQAPGKERQLVAAITSGDGTSYADSVKGRFTISRDNAKNTVYLQMNSLKPEDTAVYYCAAPFVGSVVIRRWDEYDYWGQGTQVTVSS”, the entry is “low polyreactivity”; as for “QVQLVESGVGLVQAGGSLRLSCAASGRTFPPYAMGWYRQAPGKERELVAAISSDGSTYADSVKGRFTISRDNAKNTVYLQMNSLKPEDTAVYYCAVDYTYSYRKHFGHILYSWGQGTQVTVSS”, “low polyreactivity”; as for “QVQLVESGGGLVQAGGSLRLSCAASGSTFYFNAMGWYRQAPGKERELVAGIRYSGSSTYYADSVKGRFTISRDNAKNTVYLQMNSLKPEDTAVYYCAARYSVYPRVSKYSYRFNYWGQGNQVTVSS”, “high polyreactivity”.
For “QVQLVESGGGLVQAGGSLRLSCAASGRTFPGYGMGWYRQAPGKERELVAVITSNGGITYYADSVKGRFTISRDNAKNTVYLQMNSLKPEDTAVYYCAAYEIYYEFDSWGQGTQVTVSS” the value was “low polyreactivity”.
Turning to “QVQLVESGGGLVQAGGTLRLICAASAFIFDGYTMGWYRQAPGTERELVAAISRSGGRTYYADSVKGRFTISRDNAKNTVYLQMNSQKPEDTAVYDCAVRYRQYSQNLASDYGYWGQGTQVTVSS”, the “polyreactivity (PSR sort gate)” value is on record as “high polyreactivity”.
Consider “QVQLVESGGGLVQAGGSLRLSCAASGSTFKAYAMGWYRQAPGKERELVAAITYNGGSTYYADSVKGRFTISRDNEKNTVYLQMNSLKPEDTAVYYCAKRETGRRDPRRSTQYRYEYWGQGTQVTVSS”, for which the “polyreactivity (PSR sort gate)” value was “low polyreactivity”.
As for “QVQLVESGGGLVQAGGSLRLSCAATGFRFVHTAIGWYRKAPGKERELVAAIRSRGGSTYYADSVKGRFTISRDNAKNTVYLQMKSLKPEDTAVYYCAADGAVDSSSRKFGYWGQGTQVNVSS”, the entry is “low polyreactivity”.
For “QVQLVESGGGLVQAGGSLRLTCAASGYTFVLNALGWYRQAPGKEREFVAAITWSGGSTYYADSVKGRFTISRDNAKNTVYLQMNSLKAEDTAVYYCAADPDSGQVPFDYWGQGTQVTVSS” the value was “low polyreactivity”.
For “QVQLVESGGGLVQAGGSLRLSFAASGFIFDYYAMGGYRQEPGKDRELVAAISSSGRTSYADSVKGRFTISRDNAKNTVYLQMNSLKPEDTAVYYCNATWRWTRRGYDYWGQGTQVTVSS” the value was “low polyreactivity”; for “QVQLVESGGGLVQAGGSLRLTCAASGRIFAHYAMGWYRPAPGKERELVAAISSGGSTYYADSVKGRFTISRDNAKNTVYLLMNSLKPEDTAVYYCNKRPVRRKYDYWGQGTQVTVSS”, “low polyreactivity”; for “QVQLVDSGGGLVQAGGSLRLTCAASGRTFWKYCKGWYRQAPGQERELVAVMSRPAGSTYYADSVKGRFPISRDNAKNTGYLLLNRLKPEDTAVYSCAKRPKNKPVLGDYDHWGQGTQVTVSS”, “low polyreactivity”.
